Columns and labels:
[1] = target: 红细胞胞膜抗原 (Erythrocyte membrane antigen) on human fresh red blood cells (human); test: ELISA on formaldehyde-fixed human red blood cells; antibody at 25 ng/ml
[2] = target: 红细胞胞膜抗原 (Erythrocyte membrane antigen) on human fresh red blood cells (human); test: ELISA on formaldehyde-fixed human red blood cells; antibody at 50 ng/ml
[3] = target: 红细胞胞膜抗原 (Erythrocyte membrane antigen) on human fresh red blood cells (human); test: ELISA on formaldehyde-fixed human red blood cells; antibody at 12.5 ng/ml
[4] = target: 红细胞胞膜抗原 (Erythrocyte membrane antigen) on human fresh red blood cells (human); test: ELISA on formaldehyde-fixed human red blood cells; antibody at 6.25 ng/ml
[5] = target: 红细胞胞膜抗原 (Erythrocyte membrane antigen) on human fresh red blood cells (human); test: ELISA on formaldehyde-fixed human red blood cells; antibody at 3.125 ng/ml
[6] = target: 红细胞胞膜抗原 (Erythrocyte membrane antigen) on human fresh red blood cells (human); test: ELISA on formaldehyde-fixed human red blood cells; antibody at 0 ng/ml (blank)
[7] = target: 红细胞胞膜抗原 (Erythrocyte membrane antigen) on human fresh red blood cells (human); test: ELISA on red blood cells; Anti-EM-8F9mut1 stored 21 days at 4 C; antibody at 12.5 ng/ml
[8] = target: 红细胞胞膜抗原 (Erythrocyte membrane antigen) on human fresh red blood cells (human); test: ELISA on red blood cells; Anti-EM-8F9mut1 stored 21 days at 37 C; antibody at 12.5 ng/ml
[9] = target: 红细胞胞膜抗原 (Erythrocyte membrane antigen) on human fresh red blood cells (human); test: ELISA on red blood cells; Anti-EM-8F9mut1 stored 21 days at -80 C; antibody at 12.5 ng/ml
[10] = target: 红细胞胞膜抗原 (Erythrocyte membrane antigen) on human fresh red blood cells (human); test: ELISA on red blood cells; Anti-EM-8F9mut1 stored 21 days at 4 C; antibody at 1.5625 ng/ml
[11] = target: 红细胞胞膜抗原 (Erythrocyte membrane antigen) on human fresh red blood cells (human); test: ELISA on red blood cells; Anti-EM-8F9mut1 stored 21 days at 37 C; antibody at 1.5625 ng/ml
[12] = target: 红细胞胞膜抗原 (Erythrocyte membrane antigen) on human fresh red blood cells (human); test: ELISA on red blood cells; Anti-EM-8F9mut1 stored 21 days at -80 C; antibody at 1.5625 ng/ml
[13] = target: 红细胞胞膜抗原 (Erythrocyte membrane antigen) on human fresh red blood cells (human); test: ELISA on red blood cells; Anti-EM-8F9mut1 stored 21 days at 4 C; antibody at 0 ng/ml (blank)
[14] = target: 红细胞胞膜抗原 (Erythrocyte membrane antigen) on human fresh red blood cells (human); test: ELISA on red blood cells; Anti-EM-8F9mut1 stored 21 days at 37 C; antibody at 0 ng/ml (blank)
[15] = target: 红细胞胞膜抗原 (Erythrocyte membrane antigen) on human fresh red blood cells (human); test: ELISA on red blood cells; Anti-EM-8F9mut1 stored 21 days at -80 C; antibody at 0 ng/ml (blank)

| Molecule | OD450 (ref 630 nm) [1] | OD450 (ref 630 nm) [2] | OD450 (ref 630 nm) [3] | OD450 (ref 630 nm) [4] | OD450 (ref 630 nm) [5] | OD450 (ref 630 nm) [6] | OD450 (ref 630 nm) [7] | OD450 (ref 630 nm) [8] | OD450 (ref 630 nm) [9] | OD450 (ref 630 nm) [10] | OD450 (ref 630 nm) [11] | OD450 (ref 630 nm) [12] | OD450 (ref 630 nm) [13] | OD450 (ref 630 nm) [14] | OD450 (ref 630 nm) [15] |
| --- | --- | --- | --- | --- | --- | --- | --- | --- | --- | --- | --- | --- | --- | --- | --- |
| 对照抗体 (antibody) | 1.3 OD | 1.89 OD | 0.696 OD | 0.408 OD | 0.196 OD | 0.041 OD |  |  |  |  |  |  |  |  |  |
| Anti-EM-8F9mut1单克隆抗体 (antibody, mouse IgG2a, kappa, V domains shown) VH: QVPLQQPGAALVKPGASVKLSCQASDYTFTNYNMHWVKQTPGQGLEWIGTIYAGDGDPSYNQKFKGQATLTADKSSSTAYMQLLSLTSEDSAVYYCARGGTRAMDYWGHGTSVTVSS VL: DVLLTQIPLSLPVSLGDQASLSCRSSQTLVHSDGNTYLAWYLQKPGQSPKLLIYKVSRRFSGVPDRFSGSGSGTDFTLKISRVEAEDLGVYYCFQGSHVPFTFGSGTKLEVKR | 2.42 OD | 2.36 OD | 2.33 OD | 2 OD | 1.28 OD | 0.063 OD | 2.12 OD | 2.13 OD | 2.15 OD | 0.691 OD | 0.666 OD | 0.647 OD | 0.047 OD | 0.057 OD | 0.051 OD |
